# Biological target: human IgE with the M1′ sequence (long form of membrane IgE) expressed on transduced BJAB or Daudi cells (human), P01854
# Assay: cell-based or functional assay
# Sequence of human IgE with the M1′ sequence (long form of membrane IgE) expressed on transduced BJAB or Daudi cells (human), P01854 (P01854 116-546 I515L limits assumed): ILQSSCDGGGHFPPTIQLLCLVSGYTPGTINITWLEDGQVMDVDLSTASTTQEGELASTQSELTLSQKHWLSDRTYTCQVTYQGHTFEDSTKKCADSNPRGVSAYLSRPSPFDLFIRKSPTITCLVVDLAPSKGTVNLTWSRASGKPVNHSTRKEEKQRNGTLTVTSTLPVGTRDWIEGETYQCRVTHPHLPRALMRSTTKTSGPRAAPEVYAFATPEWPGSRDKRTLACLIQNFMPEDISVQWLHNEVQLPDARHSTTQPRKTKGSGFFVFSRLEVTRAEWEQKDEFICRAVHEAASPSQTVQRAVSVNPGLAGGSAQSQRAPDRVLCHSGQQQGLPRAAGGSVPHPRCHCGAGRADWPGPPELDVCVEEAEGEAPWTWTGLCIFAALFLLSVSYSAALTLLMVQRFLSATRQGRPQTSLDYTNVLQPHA
"apoptosis of Daudi-IgE/Long cells (Annexin V/PI, 72 h), no crosslinker; concentration at which seen [µg/mL]",EC50 of ADCC: NK-cell lysis of BJAB cells overexpressing human IgE/M1′ (LDH release) [nM],Binder,also measured
> 10,,murine anti-IgE/M1′ antibody 7A6 (antibody) heavy: QVQLQQSGAELVRPGASVTLSCKASGYTFIDYEMHWVKQTPVHGLEWIGAIDPETGTTAYNQKFKGKATLTAAKSSSTAYMELRSLTSEDSAVYYCTRLRPHYDYDNAMDSWGQGTTLTVSSASTKGPSVYPLAPGSAAQTNSMVTLGCLVKGYFPEPVTVTWNSGSLSSGVHTFPAVLQSDLYTLSSSVTVPSSTWPSETVTCNVAHPASSTKVDKKIVPRDCGCKPCICTVPEVSSVFIFPPKPKDVLTITLTPKVTCVVVDISKDDPEVQFSWFVDDVEVHTAQTQPREEQFNSTFRSVSELPIMHQDWLNGKEFKCRVNSAAFPAPIEKTISKTKGRPKAPQVYTIPPPKEQMAKDKVSLTCMITDFFPEDITVEWQWNGQPAENYKNTQPIMDTDGSYFVYSKLNVQKSNWEAGNTFTCSVLHEGLHNHHTEKSLSHSPGK light: DIVMSQSPSSLTVSVGEKVTLSCKSSQTLLYSTNQKNYLAWYQQKPGQSPKLLIYWASTRESGVPDRFTGSGSGTDFTLTISSVKAEDLAVYYCQQYYSYPYTFGGGTKVEIKRADAAPTVSIFPPSSEQLTSGGASVVCFLNNFYPKDINVKWKIDGSERQNGVLNSWTDQDSKDSTYSMSSTLTLTKDEYERHNSYTCEATHKTSTSPIVKSFNRNEC,
,,murine anti-IgE/M1′ antibody 26A11 (antibody) heavy: EVQLQQSGPELVKPGASVKMSCKASGYTFTDYYMMWVKQSHGKSLEWIGDINPNNYDTSYNQKFKGKATLTVDKSSSTAYIQLNSLTSEDSAVYYCASKAYWGQGTLVTVSAASTTPPSVYPLAPGSAAQTNSMVTLGCLVKGYFPEPVTVTWNSGSLSSGVHTFPAVLQSDLYTLSSSVTVPSSTWPSETVTCNVAHPASSTKVDKKIVPRDCGCKPCICTVPEVSSVFIFPPKPKDVLTITLTPKVTCVVVDISKDDPEVQFSWFVDDVEVHTAQTQPREEQFNSTFRSVSELPIMHQDWLNGKEFKCRVNSAAFPAPIEKTISKTKGRPKAPQVYTIPPPKEQMAKDKVSLTCMITDFFPEDITVEWQWNGQPAENYKNTQPIMDTDGSYFVYSKLNVQKSNWEAGNTFTCSVLHEGLHNHHTEKSLSHSPGK light: DIQMTQTTSSLSASLGDRVTITCRSSQDISNSLNWYQQKPDGPVKLLIYSTSRLHSGVPSRFSGSGSGTDYSLTISNLEQEDLATYFCQQGHTLPWTFGGGTKVEIKRADAAPTVSIFPPSSEQLTSGGASVVCFLNNFYPKDINVKWKIDGSERQNGVLNSWTDQDSKDSTYSMSSTLTLTKDEYERHNSYTCEATHKTSTSPIVKSFNRNEC,"apoptosis of Daudi-IgE/Long cells, no crosslinker; concentration at which seen: > 0.1 µg/mL; percent apoptosis of Daudi-IgE/Long cells, no crosslinker: 30 to 50%"
,0.83,"afucosylated humanized anti-IgE/M1′ antibody 47H4 v5 (antibody, V domains shown, here or on the partner: afucosylated Fc carbohydrate (produced in BIOWA cell lines)) VH: EVQLVESGGGLVQPGGSLRLSCAASGFTFSDYGIAWVRQAPGKGLEWVAFISDLAYTIYYADTVTGRFTISRDNSKNTLYLQMNSLRAEDTAVYYCARDNWDAMDYWGQGTLVTVSS VL: DIQMTQSPSSLSASVGDRVTITCRSSQSLVHNNANTYLHWYQQKPGKAPKLLIYKVSNRFSGVPSRFSGSGSGTDFTLTISSLQPEDFATYYCSQNTLVPWTFGQGTKVEIKR",
,6.6,"humanized anti-IgE/M1′ antibody 47H4.v5 (antibody, V domains shown) VH: EVQLVESGGGLVQPGGSLRLSCAASGFTFSDYGIAWVRQAPGKGLEWVAFISDLAYTIYYADTVTGRFTISRDNSKNTLYLQMNSLRAEDTAVYYCARDNWDAMDYWGQGTLVTVSS VL: DIQMTQSPSSLSASVGDRVTITCRSSQSLVHNNANTYLHWYQQKPGKAPKLLIYKVSNRFSGVPSRFSGSGSGTDFTLTISSLQPEDFATYYCSQNTLVPWTFGQGTKVEIKR",
> 10,,murine anti-IgE/M1′ antibody 47H4 (antibody) heavy: EVKLVESGGGLVQPGGSRKLSCAASGFTFSDYGMAWVRQAPGKGPEWVAFISDLAYTIYYADTVTGRFTISRENAKNTLYLEMSSLRSEDTALYYCARDNWDAMDYWGQGTSVTVSSAKTTPPSSVYPLAPGSAAQTNSMVTLGCLVKGYFPEPVTVTWNSGSLSSGVHTFPAVLQSDLYTLSSSVTVPSSTWPSETVTCNVAHPASSTKVDKKIVPRDCGCKPCICTVPEVSSVFIFPPKPKDVLTITLTPKVTCVVVDISKDDPEVQFSWFVDDVEVHTAQTQPREEQFNSTFRSVSELPIMHQDWLNGKEFKCRVNSAAFPAPIEKTISKTKGRPKAPQVYTIPPPKEQMAKDKVSLTCMITDFFPEDITVEWQWNGQPAENYKNTQPIMDTDGSYFVYSKLNVQKSNWEAGNTFTCSVLHEGLHNHHTEKSLSHSPGK light: DIVLTQTPLSLPVSLGDQASISCRSSQSLVHNNGNTYLHWYLQKPGQSPKLLIYKVSNRFSGVPDRFSGSGSGTDFTLKISRLEAEDLGVYFCSQNTLVPWTFGGGTKVEIKRADAAPTVSIFPPSSEQLTSGGASVVCFLNNFYPKDINVKWKIDGSERQNGVLNSWTDQDSKDSTYSMSSTLTLTKDEYERHNSYTCEATHKTSTSPIVKSFNRNEC,
